Measurements as given in the supplement of paper PMC10567573.

B1: CCDC89 (parent)
chain: LNAELEEKMMQEAEKLKAQGEYSR

Variants of: B1
Test: protein stability index of a GFP-peptide fusion (GPS, HEK-293T) (PSI 1-6); higher = more stable
Details: c terminus: a fixed tail appended
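Note: lentivirally expressed fusions sorted by FACS into six bins by GFP to DsRed ratio, PSI derived from sequencing read proportions per bin multiplied by bin number.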

In order of falling protein stability index:
1. LNAELEEKMMQEAEKLKAQGEDSR [Y22D]  5.99
2. LNAELEEKMMQEAEKLKADGEYSR [Q19D]  5.85
3. LNAELEEKMMQEAEKLKAEGEYSR [Q19E]  5.84
4. LNAELEEKMMQEDEKLKAQGEYSR [A13D]  5.8
5. LNAELEEKMMQEEEKLKAQGEYSR [A13E]  5.71
6. LNAELEEKMSQEAEKLKAQGEYSR [M10S]  5.65
7. LNAELEEKMMQEAEKLKAQGEGSR [Y22G]  5.63
8. LNAELEEKMMQEAEKLKAVGEYSR [Q19V]  5.57
9. LNAELEEKMAQEAEKLKAQGEYSR [M10A]  5.55
10. LNAELEEKPMQEAEKLKAQGEYSR [M9P]  5.53
11. LNAELEEKMMQEAEKLKAQGKYSR [E21K]  5.46
12. LNAELEEKMLQEAEKLKAQGEYSR [M10L]  5.46
13. LNAELEEKMTQEAEKLKAQGEYSR [M10T]  5.42
14. LNAELEEKMMQEAHKLKAQGEYSR [E14H]  5.41
15. LNAELEEKMEQEAEKLKAQGEYSR [M10E]  5.39
16. LNAELEEKMNQEAEKLKAQGEYSR [M10N]  5.34
17. LNAELEEKMMQEAEKLKAKGEYSR [Q19K]  5.3
18. LNAELEEKMMQEYEKLKAQGEYSR [A13Y]  5.28
19. LNAELEEKMMQETEKLKAQGEYSR [A13T]  5.26
20. LNAELEEKMRQEAEKLKAQGEYSR [M10R]  5.25
21. LNAELEEKMMQEAEKLKAQGECSR [Y22C]  5.25
22. LNAELEEKMMQEAEKLKAAGEYSR [Q19A]  5.24
23. LNAELEEKTMQEAEKLKAQGEYSR [M9T]  5.23
24. LNAELEEKMMQEAEKLKASGEYSR [Q19S]  5.19
25. LNAELEEKMMQEADKLKAQGEYSR [E14D]  5.19
26. LNAELEEKMMQEAEKLKATGEYSR [Q19T]  5.18
27. LNAELEEKMYQEAEKLKAQGEYSR [M10Y]  5.15
28. LNAELEEKMMQEAQKLKAQGEYSR [E14Q]  5.15
29. LNAELEEKMVQEAEKLKAQGEYSR [M10V]  5.13
30. LNAELEEKMMQEAEKLKAPGEYSR [Q19P]  5.12
31. LNAELEEKRMQEAEKLKAQGEYSR [M9R]  5.12
32. LNAELEEKMHQEAEKLKAQGEYSR [M10H]  5.11
33. LNAELEEKNMQEAEKLKAQGEYSR [M9N]  5.1
34. LNAELEEKMMQEKEKLKAQGEYSR [A13K]  5.08
35. LNAELEEKMDQEAEKLKAQGEYSR [M10D]  5.08
36. LNAELEEKMKQEAEKLKAQGEYSR [M10K]  5.08
37. LNAELEEKWMQEAEKLKAQGEYSR [M9W]  5.04
38. LNAELEEKMMQEAEKLKAQGYYSR [E21Y]  5.03
39. LNAELEEKMMQEMEKLKAQGEYSR [A13M]  5
40. LNAELEEKMMQEREKLKAQGEYSR [A13R]  4.99
41. LNAELEEKMMQEAEKLKAQGRYSR [E21R]  4.98
42. LNAELEEKMMQEAEKLKAGGEYSR [Q19G]  4.95
43. LNAELEEKMMQECEKLKAQGEYSR [A13C]  4.94
44. LNAELEEKMMQEAEKLKAQGDYSR [E21D]  4.92
45. LNAELEEKMMQEHEKLKAQGEYSR [A13H]  4.85
46. LNAELEEKMMQEGEKLKAQGEYSR [A13G]  4.84
47. LNAELEEKMMQEAEKLKANGEYSR [Q19N]  4.82
48. LNAELEEKMMQEAEKLKAQGNYSR [E21N]  4.79
49. LNAELEEKQMQEAEKLKAQGEYSR [M9Q]  4.79
50. LNAELEEKMMQEAEKLKAQGAYSR [E21A]  4.77
51. LNAELEEKMMQEAEKLKAQGMYSR [E21M]  4.76
52. LNAELEEKMMQNAEKLKAQGEYSR [E12N]  4.75
53. LNAELEEKMMQEAEKLKAHGEYSR [Q19H]  4.74
54. LNAELEEKMWQEAEKLKAQGEYSR [M10W]  4.7
55. LNAELEEKMMQESEKLKAQGEYSR [A13S]  4.68
56. LNAELEEKMMQEAEKLKACGEYSR [Q19C]  4.66
57. LNAELEEKMMQEANKLKAQGEYSR [E14N]  4.66
58. LNAELEEKMMQEAEKLKAQGEESR [Y22E]  4.65
59. LNAELEEKMMQEVEKLKAQGEYSR [A13V]  4.64
60. LNAELEEKMMQEAEKLKAQGIYSR [E21I]  4.62
61. LNAELEEKMMQEAEKLKAWGEYSR [Q19W]  4.62
62. LNAELEEKMMQEAEKLKAQGVYSR [E21V]  4.58
63. LNAELEEKMMQEQEKLKAQGEYSR [A13Q]  4.5
64. LNAELEEKMMQEALKLKAQGEYSR [E14L]  4.5
65. LNAELEEKMMQEFEKLKAQGEYSR [A13F]  4.49
66. LNAELEEKMMQEAEKLKAQGHYSR [E21H]  4.47
67. LNAELEEKMMQEAEKLKAQGEFSR [Y22F]  4.46
68. LNAELEEKMMQWAEKLKAQGEYSR [E12W]  4.42
69. LNAELEEKMMQTAEKLKAQGEYSR [E12T]  4.4
70. LNAELEEKMMQEAEKLKAQGSYSR [E21S]  4.39
71. LNAELEEKMMQEIEKLKAQGEYSR [A13I]  4.38
72. LNAELEEKMMQCAEKLKAQGEYSR [E12C]  4.38
73. LNAELEEKMMQEACKLKAQGEYSR [E14C]  4.33
74. LNAELEEKMMQEAEKLKAQGCYSR [E21C]  4.29
75. LNAELEEKMMQEAIKLKAQGEYSR [E14I]  4.27
76. LNAELEEKMMQRAEKLKAQGEYSR [E12R]  4.26
77. LNAELEEKMMQEAEKLKAQGTYSR [E21T]  4.19
78. LNAELEEKMMQEAEKLKAQGGYSR [E21G]  4.17
79. LNAELEEKMMQEAEKLKAQGLYSR [E21L]  4.16
80. LNAELEEKMMQEAEKLKAMGEYSR [Q19M]  4.13
81. LNAELEEKMMQEWEKLKAQGEYSR [A13W]  4.13
82. LNAELEEKMMQVAEKLKAQGEYSR [E12V]  4.12
83. LNAELEEKMMQEAFKLKAQGEYSR [E14F]  4.05
84. LNAELEEKMMQEAAKLKAQGEYSR [E14A]  4
85. LNAELEEKKMQEAEKLKAQGEYSR [M9K]  3.98
86. LNAELEEKLMQEAEKLKAQGEYSR [M9L]  3.96
87. LNAELEEKMMQEAEKLKAIGEYSR [Q19I]  3.83
88. LNAELEEKMMQEAEKLKAQGWYSR [E21W]  3.76
89. LNAELEEKMMQEAEKLKAFGEYSR [Q19F]  3.64
90. LNAELEEKMMQEAGKLKAQGEYSR [E14G]  3.59
91. LNAELEEKMMQFAEKLKAQGEYSR [E12F]  3.56
92. LNAELEEKMMQIAEKLKAQGEYSR [E12I]  3.28
93. LNAELEEKMMQEAEKLKALGEYSR [Q19L]  2.99
94. LNAELEEKMMQEAEKLKAYGEYSR [Q19Y]  2.53
